# The supplement of paper PMC7877785
# ± gives the uncertainty stated by the source.
# Assay: self-splicing fitness, log relative to wild type (ln ratio); higher = more splicing; Tetrahymena group I intron in knt gene, E. coli kanamycin selection, DiMSum; sequences stand for … in CUCUCU…GGAGGGAAAAGUUAUCAGGCAUGCACCUGGUAGCUAGUCUUUAAACCAAUAGAUUGCAUCGGUUUAAAAGGCAAGACCGUCAAAUUGCGGGAAAGGGGUCAACAGCCGUUCAGUACCAAGUCUCAGGGGAAACUUUGAGAUGGCCUUGCAAAGGGUAUGGUAAUAAGCUGACGGACAUGGUCCUAACCACGCAGCCAAGUCCUAAGUCAACAGAUCUUCUGUUGAUAUGGAUGCAGUUCACAGACUAAAUGUCGGUCGGGGAAGAUGUAUUCUUCUCAUAAGAUAUAGUCGGACCUCUCCUUAAUGGGAGCUAGCGGAUGAAGUGAUGCAACACUGGAGCCGCUGGGAACUAAUUUGUAUGCGAAAGUAUAUUGAUUAGUUUUGGAGUACUCGUGGUCG
# Summary of the method: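 The eight P1ex-region nucleotides of an intron in the knt kanamycin-resistance gene on pET-22b(+) were all randomised and the library put into E. coli BL21(DE3). Six replicate transformations were grown overnight at 37°C or 30°C on LB agar with or without 25 μg/mL kanamycin, together with 100 μg/mL carbenicillin, 50 μM IPTG and 0.2% rhamnose. Colonies were pooled and amplicon-sequenced on an Illumina HiSeq 2500. Fitness from DiMSum is the error-weighted combination of wild-type-normalised replicate fold changes, kanamycin over none.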
Sequence,self-splicing fitness (ln) (30 °C),self-splicing fitness (ln) (37 °C)
CCCCAGCAAUAUUACGCAUA,-2.67 ± 0.14,-2.4 ± 0.2
CCCCAGCAAUAUUACGCCAG,-3.57 ± 0.2,-2.44 ± 0.22
CCCCAGCAAUAUUACGCGGA,-3.34 ± 0.15,-2.07 ± 0.12
CCCCAGCAAUAUUACGCGUA,-3.87 ± 0.25,-2.46 ± 0.18
CCCCAGCAAUAUUACGCUCG,-3.14 ± 0.17,-2.1 ± 0.19
CCCCAGCAAUAUUACGGAAG,-2.27 ± 0.088,-1.73 ± 0.11
CCCCAGCAAUAUUACGGACA,-3.52 ± 0.14,-2.53 ± 0.14
CCCCAGCAAUAUUACGGAUC,-2.89 ± 0.12,-2.96 ± 0.21
CCCCAGCAAUAUUACGGCAG,-3.92 ± 0.16,-2.22 ± 0.15
CCCCAGCAAUAUUACGGCGA,-2.05 ± 0.14,-1.64 ± 0.14
CCCCAGCAAUAUUACGGCGG,-3.53 ± 0.17,-2.99 ± 0.24
CCCCAGCAAUAUUACGUACA,-3.37 ± 0.21,-3.5 ± 0.35
CCCCAGCAAUAUUACGUCAU,-3.36 ± 0.1,-3.02 ± 0.15
CCCCAGCAAUAUUACGUCCG,–,-2.09 ± 0.28
CCCCAGCAAUAUUACGUGCC,-4.13 ± 0.27,-2.57 ± 0.24
CCCGAGCAAUAUUACGAACU,–,-1.58 ± 0.39
CCCGAGCAAUAUUACGAAGC,-3.12 ± 0.26,–
CCCGAGCAAUAUUACGAAUA,-3.44 ± 0.2,-2.89 ± 0.21
CCCGAGCAAUAUUACGACUA,-2.29 ± 0.36,–
CCCGAGCAAUAUUACGAGCC,-2.46 ± 0.2,-2.12 ± 0.28
CCCGAGCAAUAUUACGCAAC,–,-2.23 ± 0.34
CCCGAGCAAUAUUACGCAUC,-2 ± 0.15,-1.45 ± 0.2
CCCGAGCAAUAUUACGCUUA,-3.88 ± 0.3,-2.82 ± 0.33
CCCGAGCAAUAUUACGCUUC,-3.7 ± 0.47,-2.32 ± 0.29
CCCGAGCAAUAUUACGGAGG,-3.84 ± 0.21,-2.57 ± 0.19
CCCGAGCAAUAUUACGGCAC,–,-2.32 ± 0.28

Sequence,self-splicing fitness (ln) (30 °C),self-splicing fitness (ln) (37 °C)
CCCGAGCAAUAUUACGGUCG,-3.56 ± 0.24,-2.58 ± 0.2
CCCGAGCAAUAUUACGGUUC,-3.62 ± 0.2,-1.98 ± 0.2
CCCGAGCAAUAUUACGUAUC,-1.94 ± 0.17,-3.67 ± 0.36
CCCGAGCAAUAUUACGUCUC,–,-2.22 ± 0.29
CCCGAGCAAUAUUACGUGAG,-3.58 ± 0.19,-2.77 ± 0.24
CCCGAGCAAUAUUACGUGUC,-5.12 ± 0.38,-2.8 ± 0.19
CCCGAGCAAUAUUACGUUGG,-4.15 ± 0.18,-2.09 ± 0.14
CCCGAGCAAUAUUACGUUUA,-3.42 ± 0.17,-2.75 ± 0.16
CCCUAGCAAUAUUACGAACC,–,-2.28 ± 0.39
CCCUAGCAAUAUUACGAAUA,-1.47 ± 0.3,-1.79 ± 0.39
CCCUAGCAAUAUUACGACCU,-3.5 ± 0.21,-2.68 ± 0.26
CCCUAGCAAUAUUACGAUCU,-3.92 ± 0.28,-2.74 ± 0.24
CCCUAGCAAUAUUACGAUGC,-3.12 ± 0.2,-2.22 ± 0.31
CCCUAGCAAUAUUACGCAUA,-3.33 ± 0.27,-1.99 ± 0.2
CCCUAGCAAUAUUACGCAUC,-3.26 ± 0.25,-2 ± 0.2
CCCUAGCAAUAUUACGCCAA,-3.03 ± 0.25,-2.74 ± 0.41
CCCUAGCAAUAUUACGCCAG,-3.87 ± 0.32,-3.21 ± 0.37
CCCUAGCAAUAUUACGCCUA,–,-2.48 ± 0.34
CCCUAGCAAUAUUACGCCUC,-3.29 ± 0.27,-3.81 ± 0.31
CCCUAGCAAUAUUACGCCUU,-3.23 ± 0.16,-3.08 ± 0.4
CCCUAGCAAUAUUACGCGGC,-1.47 ± 0.21,-2.36 ± 0.41
CCCUAGCAAUAUUACGCGUG,-5.09 ± 0.41,-1.06 ± 0.13
CCCUAGCAAUAUUACGCUAG,-4.18 ± 0.34,-2.47 ± 0.28
CCCUAGCAAUAUUACGCUGU,-4.59 ± 0.31,-2.63 ± 0.21
CCCUAGCAAUAUUACGCUUG,-3.94 ± 0.42,-2.18 ± 0.28
